In PMC8035321:

Target: mouse MOCCI^FLAG (Modulator of cytochrome C oxidase during Inflammation, FLAG-tagged) (mouse)
Test: co-IP; anti-FLAG M2 beads on total mouse heart mitochondria (AAV-MOCCI; AAV-GFP as negative control) solubilised with 1% digitonin in IP buffer (50 mM HEPES-KOH, 150 mM NaCl, 1 mM EDTA, pH 7.4), 4 °C; elution with 3X FLAG peptide; immunoblotting

enrichment in the anti-FLAG immunoprecipitate: 231%
Substance: MTCO-1, the catalytic subunit of CIV (cytochrome C oxidase) (from UniProt P00397 1-514) (natural protein)
